{"source": "paper PMC2794159", "target": "MBD4 (methyl-CpG binding domain protein 4) (mouse, UniProt Q9Z2D7 1-554)", "sequence (Q9Z2D7 whole entry, the tested form may be a part)": "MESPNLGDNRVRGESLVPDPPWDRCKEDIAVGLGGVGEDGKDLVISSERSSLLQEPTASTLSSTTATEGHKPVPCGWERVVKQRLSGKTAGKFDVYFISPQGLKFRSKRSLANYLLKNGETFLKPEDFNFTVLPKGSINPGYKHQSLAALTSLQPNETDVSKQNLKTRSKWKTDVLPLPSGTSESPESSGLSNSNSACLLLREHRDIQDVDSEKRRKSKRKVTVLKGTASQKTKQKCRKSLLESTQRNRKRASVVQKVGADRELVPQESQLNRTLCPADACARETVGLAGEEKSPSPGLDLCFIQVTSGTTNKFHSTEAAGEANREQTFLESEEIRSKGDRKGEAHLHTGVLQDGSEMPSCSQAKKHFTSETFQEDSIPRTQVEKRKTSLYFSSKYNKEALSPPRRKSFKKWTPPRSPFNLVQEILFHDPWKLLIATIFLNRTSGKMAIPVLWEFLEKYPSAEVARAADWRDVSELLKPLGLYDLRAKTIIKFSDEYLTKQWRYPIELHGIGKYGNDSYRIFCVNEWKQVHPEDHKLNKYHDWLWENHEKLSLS", "assay": "EMSA", "data": [{"binder": "GGTCGGGGTAGCGGCTGAATCGCTGCACGCCGTAGGTCACGCG (ssDNA, m5C at position 21 (m5CpG); 3' cgcg phosphorothioate)", "note": "[m5CpGGFP ssODN alone]", "values": [{"measurement": "binding result", "result": "no binding"}]}]}
